Experiment [1] concerns the target T1, ICOS ligand on transfected S293 cells (Mus musculus (Mouse), UniProt Q9JHJ8 47-322).
T1 sequence: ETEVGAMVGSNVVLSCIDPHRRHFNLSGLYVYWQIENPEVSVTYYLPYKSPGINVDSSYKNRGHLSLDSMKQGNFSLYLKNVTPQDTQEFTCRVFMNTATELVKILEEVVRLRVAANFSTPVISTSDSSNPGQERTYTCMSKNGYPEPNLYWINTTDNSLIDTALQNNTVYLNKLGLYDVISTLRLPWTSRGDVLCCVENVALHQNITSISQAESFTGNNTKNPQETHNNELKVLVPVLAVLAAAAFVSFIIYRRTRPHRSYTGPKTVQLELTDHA
Description: FACS, dye-labeled MVP on transfected S293 cells. For orientation: Flow cytometry measures light scatter and fluorescence of single cells or particles in a stream.

Experiment [2] addresses T2, OX40L on transfected S293 cells (Mus musculus (Mouse), UniProt P43488 1-198).
T2 construct: also called OX40 ligand
T2 sequence: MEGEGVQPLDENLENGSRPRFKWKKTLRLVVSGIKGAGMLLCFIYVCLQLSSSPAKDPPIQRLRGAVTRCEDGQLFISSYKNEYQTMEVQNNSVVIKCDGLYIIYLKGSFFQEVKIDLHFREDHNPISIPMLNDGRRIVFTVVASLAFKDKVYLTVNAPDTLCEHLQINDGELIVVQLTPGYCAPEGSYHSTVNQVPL
As to the kind of experiment: FACS, unlabeled MVP on transfected cells, detected with antibody.

The target of experiment [3] is T2, OX40L on transfected S293 cells. As to the kind of experiment: FACS, dye-labeled MVP on transfected S293 cells.
Experiment [4] deals with T3, CD2 on transfected S293 cells (Mus musculus (Mouse), UniProt P08920 23-344).
T3 sequence: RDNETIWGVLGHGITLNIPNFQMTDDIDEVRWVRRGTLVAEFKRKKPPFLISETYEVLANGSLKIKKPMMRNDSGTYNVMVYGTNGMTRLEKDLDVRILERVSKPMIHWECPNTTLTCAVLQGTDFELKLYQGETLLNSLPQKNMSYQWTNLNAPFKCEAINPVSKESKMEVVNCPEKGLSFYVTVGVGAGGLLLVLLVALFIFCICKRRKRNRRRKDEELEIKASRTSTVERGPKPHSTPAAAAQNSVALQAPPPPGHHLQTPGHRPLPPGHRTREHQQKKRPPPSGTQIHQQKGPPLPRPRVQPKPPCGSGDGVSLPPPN
Description: FACS, unlabeled MVP on transfected cells, detected with antibody.

Experiment [5] concerns the target T4, 4-1BBL on transfected S293 cells (Mus musculus (Mouse), UniProt P41274 1-309).
T4 construct: also called 4-1BB ligand
T4 sequence: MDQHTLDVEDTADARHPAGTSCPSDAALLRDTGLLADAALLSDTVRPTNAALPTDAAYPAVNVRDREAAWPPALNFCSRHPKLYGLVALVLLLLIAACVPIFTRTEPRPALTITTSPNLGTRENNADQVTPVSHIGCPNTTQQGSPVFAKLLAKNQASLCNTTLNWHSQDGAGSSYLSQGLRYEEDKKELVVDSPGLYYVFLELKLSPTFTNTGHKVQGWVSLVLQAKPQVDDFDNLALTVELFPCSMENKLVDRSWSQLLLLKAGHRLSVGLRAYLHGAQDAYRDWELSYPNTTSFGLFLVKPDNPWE
Description: FACS, dye-labeled MVP on transfected S293 cells.

The target of experiment [6] is T5, human TIM-3 on transfected S293 cells (human, UniProt Q8TDQ0 22-301).
T5 construct: also called HAVCR2
T5 sequence: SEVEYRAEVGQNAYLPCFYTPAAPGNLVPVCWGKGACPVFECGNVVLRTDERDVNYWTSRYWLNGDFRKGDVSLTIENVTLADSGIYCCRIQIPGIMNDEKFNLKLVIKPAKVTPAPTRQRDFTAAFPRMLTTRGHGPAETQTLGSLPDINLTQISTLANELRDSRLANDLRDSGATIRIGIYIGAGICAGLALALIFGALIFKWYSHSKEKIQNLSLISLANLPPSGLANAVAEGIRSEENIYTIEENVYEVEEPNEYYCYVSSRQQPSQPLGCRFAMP
Description: FACS, unlabeled MVP on transfected cells, detected with antibody.

Experiment [7] deals with T5, human TIM-3 on transfected S293 cells. As to the kind of experiment: FACS, dye-labeled MVP on transfected S293 cells.
The target in experiment [8] is T6, GITR Ligand on transfected S293 cells (Mus musculus (Mouse), UniProt Q7TS55 1-173).
T6 sequence: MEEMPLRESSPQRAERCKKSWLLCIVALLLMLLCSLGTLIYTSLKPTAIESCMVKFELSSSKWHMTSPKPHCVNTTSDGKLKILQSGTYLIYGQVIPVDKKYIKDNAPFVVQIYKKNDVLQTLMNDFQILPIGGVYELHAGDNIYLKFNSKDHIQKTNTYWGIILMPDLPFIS
As to the kind of experiment: FACS, unlabeled MVP on transfected cells, detected with antibody.

For experiment [9], the target named is T6, GITR Ligand on transfected S293 cells. As to the kind of experiment: FACS, dye-labeled MVP on transfected S293 cells.

B1: ICOS-MVP (other)
chain: EINGSADHRMFSFHNGGVQISCKYPETVQQLKMRLFREREVLCELTKTKGSGNAVSIKNPMLCLYHLSNNSVSFFLNNPDSSQGSYYFCSLSIFDPPPFQERNLSGGYLHIYESQLCCQLKLDIIQADGWMCHASKWVTTCDFRWYGPKYITHSIRSFTPSVEQCKESIEQTKQGTWLNPGFPPQSCGYATVTDAEAVIVQVTPHHVLVDEYTGEWVDSQFINGKCSNYICPTVHNSTTWHSDYKVKGLCDSNLGMLDSDLHLSSKAQVFEHPHIQDAASQLPDDESLFFGDTGLSKNPIELVEGWFSSWKSSIASFFFIIGLIIGLFLVLRVGIHLCIKLKHTKKRQIYTDIEMNRLGK
notes: also called ICOS-MVPs; Murine ICOS-MVP
As for B1, in [1], the “fluorescence shift relative to control MVPs” value is ~2 fold.

B2: OX40-MVP (other)
chain: VTARRLNCVKHTYPSGHKCCRECQPGHGMVSRCDHTRDTLCHPCETGFYNEAVNYDTCKQCTQCNHRSGSELKQNCTPTQDTVCRCRPGTQPRQDSGYKLGVDCVPCPPGHFSPGNNQACKPWTNCTLSGKQTRHPASDSLDAVCEDRSLLATLLWETQRPTFRPTTVQSTTVWPRTSELPSPPTLVTPEGPADIIQADGWMCHASKWVTTCDFRWYGPKYITHSIRSFTPSVEQCKESIEQTKQGTWLNPGFPPQSCGYATVTDAEAVIVQVTPHHVLVDEYTGEWVDSQFINGKCSNYICPTVHNSTTWHSDYKVKGLCDSNLGMLDSDLHLSSKAQVFEHPHIQDAASQLPDDESLFFGDTGLSKNPIELVEGWFSSWKSSIASFFFIIGLIIGLFLVLRVGIHLCIKLKHTKKRQIYTDIEMNRLGK
notes: also called OX40-MVPs; Murine OX40-MVP
With B2, the “staining shift of target+ over target- cells” value (“staining shift of target+” below) in [2] stood at 1 log. Besides, in experiment [3], the “fluorescence shift relative to control MVPs” value is ≥ 2 fold.

B3: CD48-MVP (other)
chain: FQGHSIPDINATTGSNVTLKIHKDPLGPYKRITWLHTKNQKILEYNYNSTKTIFESEFKGRVYLEENNGALHISNVRKEDKGTYYMRVLRETENELKITLEVFDPVPKPSIEINKTEASTDSCHLRLSCEVKDQHVDYTWYESSGPFPKKSPGYVLDLIVTPQNKSTFYTCQVSNPVSSKNDTVYFTLPCDLARSSGVCWTATWLVVTTLIIHRILLTIIQADGWMCHASKWVTTCDFRWYGPKYITHSIRSFTPSVEQCKESIEQTKQGTWLNPGFPPQSCGYATVTDAEAVIVQVTPHHVLVDEYTGEWVDSQFINGKCSNYICPTVHNSTTWHSDYKVKGLCDSNLGMLDSDLHLSSKAQVFEHPHIQDAASQLPDDESLFFGDTGLSKNPIELVEGWFSSWKSSIASFFFIIGLIIGLFLVLRVGIHLCIKLKHTKKRQIYTDIEMNRLGK
notes: also called CD48-MVPs; Murine CD48-MVP
Turning to B3, the “staining shift of target+” value in experiment [4] is > 1 log.

B4: 4-1BB-MVP (other)
chain: VQNSCDNCQPGTFCRKYNPVCKSCPPSTFSSIGGQPNCNICRVCAGYFRFKKFCSSTHNAECECIEGFHCLGPQCTRCEKDCRPGQELTKQGCKTCSLGTFNDQNGTGVCRPWTNCSLDGRSVLKTGTTEKDVVCGPPVVSFSPSTTISVTPEGGPGGHSLQVLTDIIQADGWMCHASKWVTTCDFRWYGPKYITHSIRSFTPSVEQCKESIEQTKQGTWLNPGFPPQSCGYATVTDAEAVIVQVTPHHVLVDEYTGEWVDSQFINGKCSNYICPTVHNSTTWHSDYKVKGLCDSNLGMLDSDLHLSSKAQVFEHPHIQDAASQLPDDESLFFGDTGLSKNPIELVEGWFSSWKSSIASFFFIIGLIIGLFLVLRVGIHLCIKLKHTKKRQIYTDIEMNRLGK
notes: also called 4-1BB-MVPs; Murine 4-1BB-MVP
Take B4: the “fluorescence shift relative to control MVPs” value in experiment [5] was ≥ 2 fold.

B5: human Ceacam1-MVP (other)
chain: QLTTESMPFNVAEGKEVLLLVHNLPQQLFGYSWYKGERVDGNRQIVGYAIGTQQATPGPANSGRETIYPNASLLIQNVTQNDTGFYTLQVIKSDLVNEEATGQFHVYPELPKPSISSNNSNPVEDKDAVAFTCEPETQDTTYLWWINNQSLPVSPRLQLSNGNRTLTLLSVTRNDTGPYECEIQNPVSANRSDPVTLNVTYGPDTPTISPSDTYYRPGANLSLSCYAASNPPAQYSWLINGTFQQSTQELFIPNITVNNSGSYTCHANNSVTGCNRTTVKTIIVTELSPVVAKPQIKASKTTVTGDKDSVNLTCSTNDTGISIRWFFKNQSLPSSERMKLSQGNTTLSINPVKREDAGTYWCEVFNPISKNQSDPIMLNVNYNALPQENGLSPGIIQADGWMCHASKWVTTCDFRWYGPKYITHSIRSFTPSVEQCKESIEQTKQGTWLNPGFPPQSCGYATVTDAEAVIVQVTPHHVLVDEYTGEWVDSQFINGKCSNYICPTVHNSTTWHSDYKVKGLCDSNLGMLDSDLHLSSKAQVFEHPHIQDAASQLPDDESLFFGDTGLSKNPIELVEGWFSSWKSSIASFFFIIGLIIGLFLVLRVGIHLCIKLKHTKKRQIYTDIEMNRLGK
notes: also called Ceacam1-MVPs
On to B5, for which the “staining shift of target+” value in experiment [6] was ~2 fold. The “fluorescence shift relative to control MVPs” value in [7] is ~2 fold.

B6: GITR-MVP (other)
chain: QPSVVEEPGCGPGKVQNGSGNNTRCCSLYAPGKEDCPKERCICVTPEYHCGDPQCKICKHYPCQPGQRVESQGDIVFGFRCVACAMGTFSAGRDGHCRLWTNCSQFGFLTMFPGNKTHNAVCIPEPLPTEQYGHIIQADGWMCHASKWVTTCDFRWYGPKYITHSIRSFTPSVEQCKESIEQTKQGTWLNPGFPPQSCGYATVTDAEAVIVQVTPHHVLVDEYTGEWVDSQFINGKCSNYICPTVHNSTTWHSDYKVKGLCDSNLGMLDSDLHLSSKAQVFEHPHIQDAASQLPDDESLFFGDTGLSKNPIELVEGWFSSWKSSIASFFFIIGLIIGLFLVLRVGIHLCIKLKHTKKRQIYTDIEMNRLGK
notes: also called GITR-MVPs; Murine GITR-MVP
B6: the “staining shift of target+” value in experiment [8] was determined as 1 log. In addition, the “fluorescence shift relative to control MVPs” value in experiment [9] is ≥ 2 log.

Values taken from patent US20240252613A1 (ACHELOIS BIOPHARMA, published 2024).
